Test results published in publication PMC12191217, “Aptamer Development for SARS-CoV-2 and Omicron Variants Using the Spike Protein Receptor Binding Domain as a Potential Diagnostic Tool and Therapeutic Agent”.

Biological target: SARS-CoV-2 spike RBD (Wuhan-Hu-1), His-tagged (SARS-CoV-2 (Wuhan-Hu-1 strain), UniProt P0DTC2 319-541)
Assay: BLI; 3 mM MgCl2; 10 mM phosphate pH 7.4, 137 mM NaCl, 2.7 mM KCl, 3 mM MgCl2, 0.01% BSA, 0.002% Tween 20, 25 °C; aptamer 175-1400 nM, n=2
Settings: protein: commercial; tags: His

Row | Binder | Kd [nM]
1 | GAUGGUAAUGCUGCUAUCAGCGAUUAUGACUACUAUCGUU (structured_RNA) [Aptamer 62] | 285 ± 141
2 | GAUUUUAGUCAUAGUCAGUUAGGUGGUUUACAUCUACUGA (structured_RNA) [Aptamer 11] | 425 ± 146
3 | GUUUCGGAAGAGACAGGUACGUUAAUAGUUAAUAGCGUAC (structured_RNA) [Aptamer 40] | 571 ± 173
4 | CACUACCAAGAGUGUGUUAGAGGUACAACAGUACUUUUAA (structured_RNA) [Aptamer 23] | 29300 ± 10400
5 | GCUGGUGCUGCAGCUUAUUAUGUGGGUUAUCUUCAACCUA (structured_RNA) [Aptamer 22] | 5450 ± 1700
